Test results taken from PMC5538626, “Structural and functional analysis of the GABARAP interaction motif (GIM)” (EMBO Reports, 2017).

What was measured:
[1] = biological target: LC3B (for ITC and NMR) (human) (UniProt Q9GZQ8); experiment: ITC; peptide 0.4 mM titrated into 0.020 mM LC3/GABARAP protein in 26 steps, 25°C; 50 mM Na2HPO4, 100 mM NaCl, pH 7.0; one-site model
[2] = biological target: GABARAP (for ITC and NMR) (human) (UniProt O95166); experiment: as above
Sequence of GABARAP (for ITC and NMR) (human) (O95166 whole entry): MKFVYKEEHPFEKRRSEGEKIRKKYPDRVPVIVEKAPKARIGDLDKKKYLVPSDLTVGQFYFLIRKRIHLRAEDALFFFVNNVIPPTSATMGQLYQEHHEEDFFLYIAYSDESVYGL

Substance: PLEKHM1‐LIR VNV‐CIL peptide (ITC) (from UniProt Q9Y4G2 629-642)
- Ka [1]: 3.03e+06 M⁻¹
- Kd [1]: 0.33 µM
- dH [1]: -7.9 kcal/mol
- stoichiometry N [1]: 1.06
- Ka [2]: 1.13e+07 M⁻¹
- Kd [2]: 0.09 µM
- dH [2]: -9.2 kcal/mol
- stoichiometry N [2]: 1.07

Substance: PLEKHM1‐LIR N637G peptide (ITC) (from UniProt Q9Y4G2 629-642)
- Ka [1]: 20000 M⁻¹
- Kd [1]: 50 µM
- dH [1]: -1.4 kcal/mol
- Ka [2]: 130000 M⁻¹
- Kd [2]: 7.75 µM
- dH [2]: -6.7 kcal/mol
- stoichiometry N [2]: 1.17
